We go through one molecule from patent US7439329B2, “GEF-H1b: biomarkers, complexes assays and therapeutic uses thereof” (Sugen, Inc., priority 2002, dated 2008).

The target in assay [1] is T1, PAK4 (Homo sapiens, UniProt O96013). Description: GST pull-down binding assay with 293T lysates expressing exogenous PAK4. The note with it: GST-fusion protein on glutathione beads. Also noted: expressed in transfected cells; host or cells: 293T. The procedure:
FIG. 1: (SEQ ID NOs 32-34 respectively in order of appearance) Direct binding of GEF-H1 to PAK4. Lysates were prepared from 293T cells over expressing (a) myc tagged PAK4 alleles or subdomains and incubated with GST, GST-GEF-H1 (787-921) and GST-Maguin-like bound to Glutathione beads (1,2,3,4 bead designation) or (b) GFP-GEF-H1 and incubated with PAK4 biotinylated peptides (291-355) and (276-324) linked to streptavidin beads. An equivalent amount of beads and excess lysates (500 ug) were used. Eluates of beads and total lysates were analysed by SDS-PAGE and immunoblotted with myc or GEF-H1 antiserum; (c) represents a PAK4 gene schematic outlining the regions of PAK4 used to identify the GEF-H1 interaction domain (GID). d, alignment of the GID defined by the minimal binding region of PAK4 with PAK5 and PAK6.
To confirm the in vitro interaction of GEF-H1S with PAK4, bacterially expressed GST-fusion proteins were generated with the identical sequences isolated by phage display, encoding either amino acids 763-921 of GEF-H1S or amino acids 385-555 from the Maguin-2-like protein. These fusion proteins were bound to glutathione beads and utilized in binding assays with 293T lysates expressing exogenous PAK4. […]
Target sequence in this assay (O96013 whole entry, the tested form may be a part): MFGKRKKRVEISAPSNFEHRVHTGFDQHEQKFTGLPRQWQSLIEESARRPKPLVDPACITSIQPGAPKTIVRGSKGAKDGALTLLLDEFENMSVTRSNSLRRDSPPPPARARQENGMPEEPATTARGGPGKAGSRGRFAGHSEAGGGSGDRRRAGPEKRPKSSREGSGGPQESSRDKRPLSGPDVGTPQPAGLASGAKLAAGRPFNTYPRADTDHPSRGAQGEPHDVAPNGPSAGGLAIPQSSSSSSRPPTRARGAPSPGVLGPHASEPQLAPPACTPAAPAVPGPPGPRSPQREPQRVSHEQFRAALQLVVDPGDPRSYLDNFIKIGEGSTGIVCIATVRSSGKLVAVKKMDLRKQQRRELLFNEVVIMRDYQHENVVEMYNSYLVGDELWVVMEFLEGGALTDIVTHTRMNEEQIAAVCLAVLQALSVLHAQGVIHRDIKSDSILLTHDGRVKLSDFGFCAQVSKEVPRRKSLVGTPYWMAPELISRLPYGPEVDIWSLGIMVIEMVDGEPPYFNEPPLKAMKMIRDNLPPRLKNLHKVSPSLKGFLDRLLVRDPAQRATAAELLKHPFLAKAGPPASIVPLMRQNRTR

The target in assay [2] is T1, PAK4. Description: In vitro kinase assay, phosphorylation of substrates by PAK4. The format is biochemical. Set-up: Glutathione-s-transferase (GST) fused PAK4 (residues 291-591); GST (N); made in house. To be noted: autoradiography. As for the experimental part:
Next examined, was whether GEF-H1 is a PAK4 substrate. In vitro kinase assays were performed using a GEF-H1 GST-fusion protein, a Maguin-2-like GST-fusion protein and GST control protein as substrates for phosphorylation by PAK4.
The cDNA encoding GEF-H1S obtained in the phage display screen was excised and subcloned into pGEX-4T expression vector to allow for recombinant production of protein for in vitro experiments. The GEF-H1S protein was then mixed with PAK4 kinase and incubated such that PAK4 phosphorylated the GEF-H1S. A portion of this kinase reaction was separated by SDS-PAGE and autoradiographed to visualize the extent of phosphorylation. […] SDS-PAGE is a universal protein separation and visualization technique that is described in Laemmli, Nature, 227(259):680-5, 1970.
From the phosphorylation experiments described above, two peptides of GEF-H1S were identified as being targets for PAK4-induced phosphorylation. The GEF-H1S target residues were identified by aligning the PAK4 activation loop peptide with the GEF-H1S polypeptide sequence amino acids 762 to 921.
The following phosphoisomers (phosphate-modified GEF-H1S peptides) were used in PAK4 kinase assays to determine which residues were specifically phosphorylated. Because certain residues were modified to comprise a phosphate moiety (the underlined residues below), they could not be phosphorylated by PAK4. […]
Target sequence in this assay (O96013 291-591): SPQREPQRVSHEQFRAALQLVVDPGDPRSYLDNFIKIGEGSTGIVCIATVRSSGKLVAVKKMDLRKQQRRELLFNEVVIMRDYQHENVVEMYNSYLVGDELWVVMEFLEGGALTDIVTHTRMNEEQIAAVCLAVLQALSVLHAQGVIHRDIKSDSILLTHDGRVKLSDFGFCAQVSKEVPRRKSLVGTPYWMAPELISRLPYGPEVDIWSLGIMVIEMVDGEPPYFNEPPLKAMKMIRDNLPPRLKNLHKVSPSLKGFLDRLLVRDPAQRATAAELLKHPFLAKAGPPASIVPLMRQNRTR

B1: GST-GEF-H1S (aa763-921): bacterially expressed GST-fusion protein of amino acids 763-921 of GEF-H1S (protein)
chain: LRESEQARALLEREAEEARRQLAALGQTEPLPAEAPWARRPVDPRRRSLPAGDALYLSFNPPQPSRGTDRLDLPVTTRSVHRNFEDRERQELGSPEERLQDSSDPDTGSEEEGSSRLSPPHSPRGETLAETWTRDFTRMQDIPEETESRDGEAVASES
modifications: left off: a dimerising Fc or GST
notes: bacterially expressed GST-fusion protein of amino acids 763-921 of GEF-H1S
As for B1, the “binding to full-length myc-tagged PAK4 protein and the kinase domain (amino acids 291-591)” value with PAK4 [1] was “able to bind strongly”. In addition, the “phosphorylation by PAK4 in vitro” value with PAK4 [2] is on record as “showed phosphorylation”.
